# Measurements from patent US20250353888A1 (ENANTIS S R O, published 2025).
# Positions count from the first letter of the chain named. Names and notes keep the numbering of the source.
# B1: FGF10 single-point mutant V123I (ligand)
# chain: MGSSHHHHHHSSGLVPRGSHMLGQDMVSPEATNSSSSSFSSPSSAGRHVRSYNHLQGDVRWRKLFSFTKYFLKIEKNGKVSGTKKENCPYSILEITSVEIGVVAIKAINSNYYLAMNKKGKLYGSKEFNNDCKLKERIEENGYNTYASFNWQHNGRQMYVALNGKGAPRRGQKTRRKNTSAHFLPMVVHS
# B2: FGF10 single-point mutant N181D (ligand)
# chain: B1 chain with I105V, N163D
# B3: FGF10 single-point mutant Q175E (ligand)
# chain: B1 chain with I105V, Q157E
# Target: FGF receptor 2b (FGFR2b) naturally expressed on 4MBr-5 rhesus monkey bronchial epithelial cells (rhesus monkey)
# Assay: cell-based or functional assay
row,"ED50, proliferation of lung epithelial 4MBr-5 cells (resazurin)",Binder
1,0.4 ng/mL,B1
2,1.6 ng/mL,B2
3,0.2 ng/mL,B3
